Key:
Hck = Hck (UniProt P08631); assay: phosphorylation enrichment, bacterial display (enrichment ratio); higher = better substrate or ligand; peptides without Tyr show the background
FGFR1 = FGFR1 (UniProt P11362); assay: as above
c-Abl (mouse) = assay: as above
EPHB1 = EPHB1 (UniProt P54762); assay: as above
MERTK = MERTK (UniProt Q12866); assay: as above
AncSZ = assay: as above
c-Src = assay: as above
Jak2 = Jak2 (UniProt O60674); assay: as above
Fes = Fes (UniProt P07332); assay: as above
EPHB2 = EPHB2 (UniProt P29323); assay: as above
Sequence of EPHB2 (P29323 whole entry, looked up): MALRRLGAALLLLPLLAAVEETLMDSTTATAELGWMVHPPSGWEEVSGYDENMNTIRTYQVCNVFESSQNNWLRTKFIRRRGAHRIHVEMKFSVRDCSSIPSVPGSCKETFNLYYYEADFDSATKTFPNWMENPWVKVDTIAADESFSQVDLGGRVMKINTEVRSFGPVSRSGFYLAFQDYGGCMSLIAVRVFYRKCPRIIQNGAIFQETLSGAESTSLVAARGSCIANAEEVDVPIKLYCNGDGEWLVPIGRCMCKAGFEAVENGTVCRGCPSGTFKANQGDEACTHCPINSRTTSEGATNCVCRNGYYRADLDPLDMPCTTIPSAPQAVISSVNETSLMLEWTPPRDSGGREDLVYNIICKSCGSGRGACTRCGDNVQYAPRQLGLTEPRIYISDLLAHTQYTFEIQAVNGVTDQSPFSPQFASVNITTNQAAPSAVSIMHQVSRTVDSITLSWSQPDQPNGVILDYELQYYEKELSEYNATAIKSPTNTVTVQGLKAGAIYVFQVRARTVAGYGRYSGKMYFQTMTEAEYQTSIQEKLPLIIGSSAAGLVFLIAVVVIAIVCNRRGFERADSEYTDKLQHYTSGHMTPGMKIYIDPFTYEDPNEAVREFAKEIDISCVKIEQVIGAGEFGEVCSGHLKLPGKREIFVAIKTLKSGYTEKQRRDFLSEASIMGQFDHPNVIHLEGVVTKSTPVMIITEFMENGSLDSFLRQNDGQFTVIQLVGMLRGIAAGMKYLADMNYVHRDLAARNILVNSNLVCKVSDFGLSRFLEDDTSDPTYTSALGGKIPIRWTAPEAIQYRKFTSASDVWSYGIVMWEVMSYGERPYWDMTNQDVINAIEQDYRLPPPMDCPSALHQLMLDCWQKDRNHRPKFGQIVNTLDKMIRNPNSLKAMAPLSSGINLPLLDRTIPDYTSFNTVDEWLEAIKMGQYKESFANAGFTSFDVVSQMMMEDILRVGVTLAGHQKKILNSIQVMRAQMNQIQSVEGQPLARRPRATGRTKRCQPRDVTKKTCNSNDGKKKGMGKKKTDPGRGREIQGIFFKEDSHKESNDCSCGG

FGFR3 = FGFR3 (UniProt P22607); assay: as above
Fyn = Fyn (UniProt P06241); assay: as above
Fer (mouse) = assay: as above
Grb2 SH2 = Grb2 SH2 (UniProt P62993); assay: SH2 binding enrichment of the phosphorylated peptide, bacterial display (enrichment ratio); higher = better substrate or ligand; peptides without Tyr show the background
Sequence of Grb2 SH2 (P62993 whole entry, looked up): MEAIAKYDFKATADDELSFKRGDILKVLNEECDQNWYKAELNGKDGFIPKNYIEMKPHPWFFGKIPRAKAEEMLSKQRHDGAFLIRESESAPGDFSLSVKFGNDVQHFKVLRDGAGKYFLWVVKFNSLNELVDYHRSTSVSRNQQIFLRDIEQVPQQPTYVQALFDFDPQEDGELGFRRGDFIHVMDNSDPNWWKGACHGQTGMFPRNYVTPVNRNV

c-Src SH2 = assay: as above
SHP2-C SH2 = assay: as above
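For SH2 binding enrichment of the phosphorylated peptide, bacterial display in this document: peptide library displayed on the E. coli surface as eCPX fusions, selected cells deep-sequenced, score is each peptide's frequency after selection divided by its frequency in the input.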
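For phosphorylation enrichment, bacterial display in this document: 11-residue human phosphosite peptides and single-mutation variants displayed on the E. coli surface, counted by deep sequencing, each peptide's frequency after selection divided by its frequency in the unselected input library; frequency after pTyr selection over input frequency; kinase dosed for 20-30% of maximal phosphorylation in three min.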

Sequence of FGFR1 (P11362 whole entry, looked up): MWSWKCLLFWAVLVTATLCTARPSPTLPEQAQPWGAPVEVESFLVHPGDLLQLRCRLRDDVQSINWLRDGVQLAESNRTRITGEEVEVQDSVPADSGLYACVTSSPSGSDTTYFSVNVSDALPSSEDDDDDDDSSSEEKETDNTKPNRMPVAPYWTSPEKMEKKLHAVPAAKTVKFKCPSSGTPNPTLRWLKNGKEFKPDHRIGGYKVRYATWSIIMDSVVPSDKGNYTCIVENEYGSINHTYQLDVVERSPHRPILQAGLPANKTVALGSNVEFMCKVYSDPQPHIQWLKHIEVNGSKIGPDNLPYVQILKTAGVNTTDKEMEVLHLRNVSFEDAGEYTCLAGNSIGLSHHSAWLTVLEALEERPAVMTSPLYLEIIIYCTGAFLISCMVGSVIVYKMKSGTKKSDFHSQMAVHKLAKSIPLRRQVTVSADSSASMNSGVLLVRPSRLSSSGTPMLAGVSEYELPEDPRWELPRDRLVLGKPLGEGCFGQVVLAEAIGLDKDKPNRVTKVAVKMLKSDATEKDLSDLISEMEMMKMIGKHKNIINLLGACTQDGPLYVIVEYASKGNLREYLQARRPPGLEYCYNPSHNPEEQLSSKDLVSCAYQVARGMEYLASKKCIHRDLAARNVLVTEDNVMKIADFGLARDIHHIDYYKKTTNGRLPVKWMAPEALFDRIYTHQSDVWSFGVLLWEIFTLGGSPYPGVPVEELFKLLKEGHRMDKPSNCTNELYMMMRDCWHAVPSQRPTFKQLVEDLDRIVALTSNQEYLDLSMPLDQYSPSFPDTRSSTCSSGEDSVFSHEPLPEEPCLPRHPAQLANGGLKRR
Sequence of Fes (P07332 whole entry, looked up): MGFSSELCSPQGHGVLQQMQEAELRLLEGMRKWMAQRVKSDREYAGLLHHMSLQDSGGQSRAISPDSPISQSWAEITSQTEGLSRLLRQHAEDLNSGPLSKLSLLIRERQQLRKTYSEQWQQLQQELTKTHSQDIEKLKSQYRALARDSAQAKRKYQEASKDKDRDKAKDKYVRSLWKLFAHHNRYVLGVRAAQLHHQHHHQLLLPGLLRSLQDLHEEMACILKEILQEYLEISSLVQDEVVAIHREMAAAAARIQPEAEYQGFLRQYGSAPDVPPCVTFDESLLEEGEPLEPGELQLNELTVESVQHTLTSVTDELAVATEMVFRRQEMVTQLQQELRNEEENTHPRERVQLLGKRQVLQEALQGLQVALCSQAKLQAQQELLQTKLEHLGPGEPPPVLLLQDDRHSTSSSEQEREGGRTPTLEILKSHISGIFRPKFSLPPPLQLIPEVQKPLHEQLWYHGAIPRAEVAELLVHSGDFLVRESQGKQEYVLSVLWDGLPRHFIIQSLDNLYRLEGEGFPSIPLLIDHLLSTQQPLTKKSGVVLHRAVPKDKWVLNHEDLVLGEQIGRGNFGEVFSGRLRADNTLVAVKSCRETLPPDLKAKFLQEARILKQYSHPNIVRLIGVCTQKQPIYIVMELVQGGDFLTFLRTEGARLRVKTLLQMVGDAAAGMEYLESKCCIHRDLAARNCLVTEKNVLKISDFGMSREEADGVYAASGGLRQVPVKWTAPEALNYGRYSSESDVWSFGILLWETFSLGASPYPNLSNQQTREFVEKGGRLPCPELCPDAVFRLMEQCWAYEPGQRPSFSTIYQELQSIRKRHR
Sequence of Jak2 (O60674 whole entry, looked up): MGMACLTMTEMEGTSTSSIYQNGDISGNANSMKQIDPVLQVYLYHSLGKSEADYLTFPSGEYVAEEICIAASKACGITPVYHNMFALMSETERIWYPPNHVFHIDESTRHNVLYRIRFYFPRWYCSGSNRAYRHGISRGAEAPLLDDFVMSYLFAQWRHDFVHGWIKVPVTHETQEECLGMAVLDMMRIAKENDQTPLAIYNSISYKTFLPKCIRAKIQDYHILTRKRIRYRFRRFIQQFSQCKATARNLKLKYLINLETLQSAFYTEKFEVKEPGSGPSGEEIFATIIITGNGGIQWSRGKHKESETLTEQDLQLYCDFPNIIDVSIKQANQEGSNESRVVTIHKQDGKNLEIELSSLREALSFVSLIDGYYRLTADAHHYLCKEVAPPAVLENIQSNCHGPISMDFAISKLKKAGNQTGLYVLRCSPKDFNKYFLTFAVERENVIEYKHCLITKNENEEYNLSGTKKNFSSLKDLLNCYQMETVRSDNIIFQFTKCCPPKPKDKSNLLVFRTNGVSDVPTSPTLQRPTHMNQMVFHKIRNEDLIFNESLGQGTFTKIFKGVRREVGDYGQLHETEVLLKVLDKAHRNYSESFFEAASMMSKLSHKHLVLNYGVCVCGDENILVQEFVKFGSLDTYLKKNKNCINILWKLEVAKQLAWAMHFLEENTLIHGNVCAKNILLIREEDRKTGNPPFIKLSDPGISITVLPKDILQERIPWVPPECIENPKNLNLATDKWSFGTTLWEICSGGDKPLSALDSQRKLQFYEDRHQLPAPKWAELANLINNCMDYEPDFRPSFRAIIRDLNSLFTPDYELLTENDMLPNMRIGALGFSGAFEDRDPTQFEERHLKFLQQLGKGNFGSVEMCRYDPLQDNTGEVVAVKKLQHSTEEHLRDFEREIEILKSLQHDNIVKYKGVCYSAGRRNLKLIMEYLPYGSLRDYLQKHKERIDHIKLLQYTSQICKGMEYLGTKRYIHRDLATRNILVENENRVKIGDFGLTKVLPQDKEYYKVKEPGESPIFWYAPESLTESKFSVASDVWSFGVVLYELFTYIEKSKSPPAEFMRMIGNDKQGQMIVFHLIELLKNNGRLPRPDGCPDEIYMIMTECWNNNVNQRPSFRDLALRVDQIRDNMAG
Sequence of EPHB1 (P54762 whole entry, looked up): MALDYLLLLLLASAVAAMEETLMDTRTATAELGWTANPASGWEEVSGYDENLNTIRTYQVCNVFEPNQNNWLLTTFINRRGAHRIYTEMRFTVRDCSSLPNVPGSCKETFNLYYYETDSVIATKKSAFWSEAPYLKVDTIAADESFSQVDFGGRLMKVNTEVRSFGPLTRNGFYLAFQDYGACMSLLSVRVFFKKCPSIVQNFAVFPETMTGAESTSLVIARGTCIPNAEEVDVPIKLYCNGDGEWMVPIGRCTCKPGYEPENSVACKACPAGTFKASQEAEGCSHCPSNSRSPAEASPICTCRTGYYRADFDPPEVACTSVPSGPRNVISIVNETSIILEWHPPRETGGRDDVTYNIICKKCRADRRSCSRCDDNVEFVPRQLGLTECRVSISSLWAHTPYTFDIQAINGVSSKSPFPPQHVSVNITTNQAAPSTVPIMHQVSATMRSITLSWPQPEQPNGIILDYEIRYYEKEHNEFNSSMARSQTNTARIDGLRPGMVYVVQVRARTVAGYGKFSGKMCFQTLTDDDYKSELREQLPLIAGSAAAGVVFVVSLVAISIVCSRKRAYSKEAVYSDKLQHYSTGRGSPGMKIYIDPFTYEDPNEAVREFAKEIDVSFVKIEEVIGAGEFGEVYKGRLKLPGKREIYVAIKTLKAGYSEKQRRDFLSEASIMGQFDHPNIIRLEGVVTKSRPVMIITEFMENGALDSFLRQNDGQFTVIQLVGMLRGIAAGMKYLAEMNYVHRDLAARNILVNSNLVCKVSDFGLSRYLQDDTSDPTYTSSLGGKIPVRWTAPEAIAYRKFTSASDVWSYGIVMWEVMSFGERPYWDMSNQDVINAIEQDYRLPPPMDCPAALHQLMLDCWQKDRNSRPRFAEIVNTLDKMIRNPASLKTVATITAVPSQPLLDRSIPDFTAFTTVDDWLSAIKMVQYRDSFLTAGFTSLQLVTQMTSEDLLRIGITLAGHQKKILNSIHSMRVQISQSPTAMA

Sequence	phosphorylation enrichment (Hck)	phosphorylation enrichment (FGFR1)	phosphorylation enrichment (c-Abl (mouse))	phosphorylation enrichment (EPHB1)	phosphorylation enrichment (MERTK)	phosphorylation enrichment (AncSZ)	phosphorylation enrichment (c-Src)	phosphorylation enrichment (Jak2)	phosphorylation enrichment (Fes)	phosphorylation enrichment (EPHB2)	phosphorylation enrichment (FGFR3)	phosphorylation enrichment (Fyn)	phosphorylation enrichment (Fer (mouse))	SH2 binding enrichment (Grb2 SH2)	SH2 binding enrichment (c-Src SH2)	SH2 binding enrichment (SHP2-C SH2)
GIVKAYFVRAR [AIPL1_Y267_YF]	0.503	0.487	0.669	0.445	0.512	1.11	0.467	1.13	0.991	0.434	0.558	0.488	0.463	0.826	0.506	0.756
GKGGSYSKAES [HLA-E_Y341_W346S]	0.359	0.391	0.462	0.3	0.447	0.485	0.423	0.386	0.514	0.295	0.394	0.375	0.307	0.73	0.389	0.499
GKSHIYFWTLE [EML2_Y230]	0.538	0.8	0.818	0.588	0.669	1.22	0.577	1.3	1.3	0.539	1.07	0.513	0.496	0.902	0.548	0.713
GLAELYEYQKK [CKAP5_Y1854_K1857Q]	0.857	0.61	0.529	0.909	0.574	1.08	0.813	0.917	0.985	0.472	0.629	0.532	0.87	0.671	0.509	0.697
GLIPAYHWVIM [NMNAT1_Y64_R66W]	0.543	8.56	0.92	0.755	1.8	1.49	0.526	1.68	1.25	0.731	6.04	0.503	5.52	0.878	0.535	0.52
GLRSFYETSKM [MAGED2_Y449_YF]	0.506	0.385	0.806	0.438	0.374	0.596	0.437	0.707	0.739	0.342	0.42	0.331	0.505	0.933	0.582	0.771
GMKIVYVFVKK [DNAI2_Y5_E2K_YF]	0.428	0.433	0.863	0.59	1.06	1.2	0.394	1	1.14	0.538	0.706	0.463	0.416	1.18	0.677	1.21
GNHVSYYQSDG [CACNA1C_Y1757]	0.57	0.718	0.621	0.557	0.81	0.774	0.574	0.667	0.762	0.485	0.81	0.462	0.49	0.806	0.902	0.802
GPSTPYTKSKR [SMARCC2_Y324]	0.319	0.363	0.651	0.322	0.353	0.408	0.452	0.497	0.511	0.299	0.362	0.405	0.324	0.746	0.505	0.758
GQETSYIEDNC [PAH_Y24]	0.666	0.452	0.74	0.83	0.466	1.47	0.515	1.15	1.28	0.758	0.769	0.507	0.51	1.05	0.68	0.559
GRERPYGGGGG [FUS_Y526_R521G]	0.787	1.02	0.416	0.654	0.968	0.498	0.854	0.512	0.565	0.492	0.487	0.357	0.6	0.722	0.485	0.824
GREYIYVDPMQ [PDGFRA_Y574_H570R]	2.05	12.7	5.21	6.9	4.27	3.12	1.86	1.17	0.801	8.24	8.94	1.73	1.21	0.95	0.53	0.718
GRRGQYVMPSE [TTC7A_Y396_L399P]	0.41	0.433	0.482	0.356	0.465	0.586	0.41	0.323	0.557	0.481	0.394	0.415	0.39	0.782	1.92	0.519
GRVLGYGTFGK [FLT4_Y853_A855T]	0.417	0.338	0.533	0.372	0.369	0.553	0.623	0.617	0.633	0.538	0.414	0.543	0.393	1.01	0.725	0.7
GSPAPYRRRKR [MBD1_Y403_P401A]	0.498	0.596	0.497	0.466	0.608	0.617	0.618	0.632	0.545	0.499	0.426	0.502	0.505	0.594	0.42	0.413
GSSEDYLHMVH [NIPBL_Y247]	0.449	1.07	0.646	0.475	0.485	0.978	0.524	0.874	0.874	0.473	1	0.423	0.416	0.743	0.465	0.556
GTHCHYKAPTV [FZD9_Y569]	0.429	0.493	3.71	0.421	0.442	0.648	0.485	0.667	0.79	0.39	0.51	0.442	0.505	1.25	1.3	0.913

Sequence	phosphorylation enrichment (Hck)	phosphorylation enrichment (FGFR1)	phosphorylation enrichment (c-Abl (mouse))	phosphorylation enrichment (EPHB1)	phosphorylation enrichment (MERTK)	phosphorylation enrichment (AncSZ)	phosphorylation enrichment (c-Src)	phosphorylation enrichment (Jak2)	phosphorylation enrichment (Fes)	phosphorylation enrichment (EPHB2)	phosphorylation enrichment (FGFR3)	phosphorylation enrichment (Fyn)	phosphorylation enrichment (Fer (mouse))	SH2 binding enrichment (Grb2 SH2)	SH2 binding enrichment (c-Src SH2)	SH2 binding enrichment (SHP2-C SH2)
GTPVMYTYDEY [COL10A1_Y623]	1.01	0.743	0.68	0.708	0.804	1.26	2.42	1.04	1.09	0.978	0.893	1.76	0.575	0.954	2.67	0.843
GYEEAYSVFKK [PAFAH1B1_Y28]	4.07	0.491	1.96	0.498	0.654	1.35	4.68	0.754	0.947	0.605	0.681	2.37	0.339	0.831	2.54	1.25
HAVFIYDICHV [TWNK_Y508_V507I_YF]	2.59	0.54	1.89	3.04	3.24	1.19	2.49	1.26	1.56	3.98	0.956	3.92	4.14	1.34	0.619	0.793
HDKEFYSVHNK [MET_Y1235_Y1230H_YF]	1.03	0.804	0.309	0.455	0.467	1.14	0.429	0.513	0.842	0.643	0.549	0.646	0.629	0.734	0.395	0.466
HEEDNYIEMIP [NWD2_Y566_L569M]	0.822	3.93	1.86	1.68	1.13	3.02	1.16	2.39	2.85	1.19	3.82	0.67	0.938	0.553	0.467	0.747
HEVHIYEKSGA [ARPC1B_Y35]	1.68	0.673	1.69	1.1	0.77	1.38	1.48	1.06	1.74	0.611	0.993	1.01	1.03	0.817	2.29	0.667
HFGCVYYGTLL [MET_Y1093_H1094Y]	2.43	2.69	1.82	1.5	1.11	1.88	8.21	2.13	2.43	1.42	2.19	3.77	1.76	0.841	0.578	0.715
HFPFQCHRQLF [F12_Y53_Y53C_YF]	1.07	0.745	1.09	0.875	0.885	1.76	0.692	1.1	1.64	0.758	1.4	0.535	0.587	1.23	0.951	1.01
HGDSAYHSQRH [ERBB3_Y1132_R1127H]	0.648	0.808	1.32	0.63	0.789	1.2	0.824	1.03	1.22	0.479	0.425	0.327	0.276	0.996	0.508	0.896
HGEAVYSRDCV [XPC_Y676_R671H]	2.75	0.621	0.66	0.473	0.89	0.697	3.78	0.786	0.819	0.51	0.687	3.49	0.664	1.18	0.586	0.716
HKGASYVFRLS [PTPRD_Y891]	0.468	0.536	0.935	0.593	0.512	1	0.583	1.26	1.34	0.791	0.818	0.539	0.412	1.56	0.97	2.11
HKNNNYEPNLF [BRCA2_Y57]	0.61	1.2	0.563	1.95	0.539	0.739	0.579	0.477	0.767	0.89	0.508	0.577	0.62	0.637	0.413	0.502
HLTLVYGGIFL [FBP1_Y259_R255L]	2.09	0.745	1.4	0.743	0.507	1.61	2.71	1.96	1.81	0.849	1.15	2.72	0.699	0.808	0.544	0.883
HLVLNYGVCIC [JAK2_Y613_V617I]	0.484	0.607	1.52	1.39	0.535	1.52	0.576	1.68	2.09	0.92	1.46	0.551	0.67	0.985	0.614	0.597
HLVSEYQQFQD [TUBB3_Y422_D417H_YF]	0.524	0.741	0.559	0.819	0.336	1.07	0.728	0.917	0.974	0.916	0.54	0.577	0.338	0.869	0.544	0.75
HLWRIYYDITD [MMP27_Y307]	3.14	4.63	1.86	9.72	1.77	3.29	4.21	3.36	3.16	4.96	3.87	2.6	1.64	0.869	0.941	1.01
